Columns and labels:
NTD = NTD (SARS-CoV-2, UniProt P0DTC9 47-174); assay: fluorescence anisotropy; 1:1 fit; Anisotropy: 50 mM Na phosphate pH 6.5, 150 mM NaCl, 1 mM NaN3, 50 nM RNA; EMSA: 20 mM Tris pH 7.5, 150 mM NaCl, 1 mM DTT, room temp, 25 uM RNA; NTD NMR: 20 mM Na phosphate pH 6.5, 20 mM NaCl, 25 C; CTD NMR: 20 mM Na phosphate pH 6, 200 mM NaCl; details: protein: recombinant; tags: none (tag removed by bdSENP1); label: 5',6-carboxyfluorescein (6-FAM) for anisotropy; unlabeled for NMR; single strand, no self-pairing
[1] = target: FL-N (nucleocapsid, full length) (SARS-CoV-2, UniProt P0DTC9 1-419); assay: fluorescence anisotropy; fit with locked stoichiometry n=4 RNA:FL-N; authors call it an estimate; Anisotropy: 50 mM Na phosphate pH 6.5, 150 mM NaCl, 1 mM NaN3, 50 nM RNA; EMSA: 20 mM Tris pH 7.5, 150 mM NaCl, 1 mM DTT, room temp, 25 uM RNA; NTD NMR: 20 mM Na phosphate pH 6.5, 20 mM NaCl, 25 C; CTD NMR: 20 mM Na phosphate pH 6, 200 mM NaCl; details: protein: recombinant; tags: His-tag (TALON, imidazole eluted); chain copies: 2; label: 5',6-carboxyfluorescein (6-FAM) for anisotropy; unlabeled for NMR; single strand, no self-pairing

Q: With GGCACAUGGACGUC (ssRNA) [ss-14mer] as the binder, how does the Kd (NTD) read?
A: Its Kd is 22 µM.

Q: And the Kd [1]?
A: Its Kd is about 0.08 µM.

From publication PMC10605006, “RNA structure and multiple weak interactions balance the interplay between RNA binding and phase separation of SARS-CoV-2 nucleocapsid”
